Results as given in patent US20250382359A1 (BYOMASS, published 2025).
Where a chain is given by its changes, count along the chain named. Values joined by “and” are separate entries in the source; they are usually repeats but may differ in a detail not shown here. Equal entries are not always repeated.

B1: GDF15 antibody agent Clone H, IgG (antibody, V domains shown)
VH: QVQLVQSGAEVKKPGSSVKVSCKASGGTFSSYYISWVRQAPGQGLEWMGGIAPISGTASYAQKFQGRVTITADESTSTAYMELSSLRSEDTAVYYCARGLAYDGYFDLWGRGTLVTVSS
VL: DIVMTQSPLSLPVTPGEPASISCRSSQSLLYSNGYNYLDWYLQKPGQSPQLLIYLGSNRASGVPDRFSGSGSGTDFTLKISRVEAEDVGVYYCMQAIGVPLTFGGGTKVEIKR
B2: GDF15 antibody agent Clone E, IgG (antibody, V domains shown)
VH: QVQLVQSGAEVKKPGASVKVSCKASGYTFTSYGINWVRQAPGQGLEWMGWITAYSGDTNYAQKLQGRVTMTTDTSTSTAYMELRSLRSDDTAVYYCARGPGQYADVDVWGQGTMVTVSS
VL: DIQMTQSPSSVSASVGDRVTITCRASQGISSWLAWYQQKPGKAPKLLIYAASSLQSGVPSRFSGSGSGTDFTLTISSLQPEDFATYYCQQANSFPITFGGGTKVEIKR
B3: GDF15 antibody agent Clone O, IgG (antibody, V domains shown)
VH: QVQLVQSGAEVKKPGATVKVSCKASGYTFDSLGMSWVRQAPGQGLEWMGYISTYSGDTVYAQKLQGRVTMTTDTSTSTAYMELRSLRSDDTAVYYCARESGQQVSALDPWGQGTLVTVSS
VL: B2 VL with S31R, A91G, N92A, I96L
B4: GDF15 antibody agent Clone S, IgG (antibody, V domains shown)
VH: B2 VH
VL: B2 VL with M4L, S31P
B5: GDF15 antibody agent Clone T, Fab (Fab, V domains shown)
VH: B2 VH
VL: DIQMTQSPSSVSASVGDRVTITCRASQGISSWLAWYQQKPGKAPKLLIYAASSLQSGVPSRFSGSGSGTDFTLTISSLQPEDFATYYCQQASQFPITFGGGTKVEIK
notes: Fab; CH1 and CL of the Fab not specified; also called Fab of Clone T
B6: GDF15 antibody agent Clone J, Fab (Fab, V domains shown)
VH: B2 VH with T52D, D57S
VL: B5 VL with S92N, Q93S
notes: Fab; CH1 and CL of the Fab not specified; also called Fab of Clone J
B7: GDF15 antibody agent Clone T, IgG (antibody, V domains shown)
VH: B2 VH
VL: B2 VL with N92S, S93Q
B8: GDF15 antibody agent Clone S, Fab (Fab, V domains shown)
VH: B2 VH
VL: B5 VL with M4L, S31P, S92N, Q93S
notes: Fab; CH1 and CL of the Fab not specified; also called Fab of Clone S
B9: GDF15 antibody agent Clone P, Fab (Fab, V domains shown)
VH: B3 VH with L32Y, M34I, S35H, Y50W, S52T, T53A, Q103T, V104S, D108G
VL: B5 VL with S31R, A91G, S92A, Q93S, I96L
notes: Fab; CH1 and CL of the Fab not specified; also called Fab of Clone P

Tests used:
Human GDF15 Fc [1] = biological target: T1, Human GDF15 Fc (human, UniProt Q99988 195-308, limits assumed, biotinylated (EZ-Link Sulfo-NHS-Biotinylation Kit) in the SPR assay); assay: BLI Octet; IgG on sensor, 100 nM antigen (avid)
T1 construct: also called human GDF15-Fc fusion; biotinylated Human GDF15 Fc; not shown: Fc part
T1 sequence: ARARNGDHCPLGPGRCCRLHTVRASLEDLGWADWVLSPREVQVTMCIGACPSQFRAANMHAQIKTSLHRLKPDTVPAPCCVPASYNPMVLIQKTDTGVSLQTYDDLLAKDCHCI
Procedure: Briefly, ForteBio affinity measurements were performed by loading IgGs on-line onto AHC sensors. Sensors were equilibrated off-line in assay buffer for 30 min and then monitored on-line for 60 seconds for baseline establishment. Sensors with loaded IgGs were exposed to 100 nM antigen for 3 minutes, and afterwards were transferred to assay buffer for 3 min for off-rate measurement. All kinetics were analyzed using the 1:1 binding model.

[2] = biological target: T2, GDF15 (ligand used in the GFRAL/RET cell assays) (UniProt Q99988 197-308, limits assumed); assay: cell-based or functional assay
T2 sequence (looked up): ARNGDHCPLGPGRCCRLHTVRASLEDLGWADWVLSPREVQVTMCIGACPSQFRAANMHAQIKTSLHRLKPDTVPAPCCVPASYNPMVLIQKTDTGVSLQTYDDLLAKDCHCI

GDF10 = biological target: T3, GDF10 (UniProt P55107 369-478); assay: BLI Octet; IgG on sensor
T3 sequence (looked up): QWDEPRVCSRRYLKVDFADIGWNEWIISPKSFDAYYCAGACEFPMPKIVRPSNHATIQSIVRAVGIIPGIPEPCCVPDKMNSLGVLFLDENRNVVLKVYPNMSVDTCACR

Human BMP9 = biological target: T4, Human BMP9 (human, UniProt Q9UK05 320-429); assay: BLI Octet; IgG on sensor
T4 sequence (looked up): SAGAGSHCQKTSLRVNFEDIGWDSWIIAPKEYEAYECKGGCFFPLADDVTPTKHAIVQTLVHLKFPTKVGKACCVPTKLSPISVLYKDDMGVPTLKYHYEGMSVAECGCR

Human Activin B = biological target: T5, Human Activin B (human, UniProt P09529 293-407); assay: BLI Octet; IgG on sensor
T5 sequence (looked up): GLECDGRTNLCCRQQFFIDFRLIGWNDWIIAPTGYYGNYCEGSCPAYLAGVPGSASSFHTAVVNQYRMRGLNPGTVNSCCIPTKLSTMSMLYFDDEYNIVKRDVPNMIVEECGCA

GDF11 = biological target: T6, GDF11 (UniProt O95390 299-407); assay: BLI Octet; IgG on sensor
T6 construct: Also used as ligand in the Activin 2B receptor/SMAD reporter assay

Human Activin A Fc = biological target: T7, Human Activin A Fc (human, UniProt P08476 311-426); assay: BLI Octet; IgG on sensor
T7 construct: not shown: Fc part
T7 sequence (looked up): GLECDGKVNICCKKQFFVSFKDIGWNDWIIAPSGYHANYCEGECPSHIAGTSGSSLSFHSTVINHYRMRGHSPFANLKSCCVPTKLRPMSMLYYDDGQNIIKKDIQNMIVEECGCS

GDNF = biological target: T8, GDNF (UniProt P39905 78-211); assay: BLI Octet; IgG on sensor
T8 sequence (looked up): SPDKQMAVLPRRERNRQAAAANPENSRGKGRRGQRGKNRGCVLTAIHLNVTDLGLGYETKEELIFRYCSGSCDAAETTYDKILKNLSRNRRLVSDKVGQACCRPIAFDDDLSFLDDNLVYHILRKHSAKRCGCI

Human BMP10 = biological target: T9, Human BMP10 (human, UniProt O95393 317-424); assay: BLI Octet; IgG on sensor
T9 sequence (looked up): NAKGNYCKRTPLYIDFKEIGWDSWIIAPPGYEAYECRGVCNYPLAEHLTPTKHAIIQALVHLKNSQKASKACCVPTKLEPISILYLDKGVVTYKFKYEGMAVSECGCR

GDF8 = GDF8 (UniProt O14793 267-375); assay: BLI Octet; IgG on sensor
Human GDF15 Fc [3] = biological target: T1, Human GDF15 Fc; assay: SPR Biacore 8K; biotinylated antigen captured, Fab analyte
Procedure: Kinetic analysis was conducted at 25° C. in HBS-EP+running buffer (10 mM HEPES pH 7.4, 150 mM NaCl, 3 mM EDTA, 0.05% Surfactant P20) using a Biacore 8K optical biosensor (Cytiva, Marlborough, MA). The sample compartment was maintained at 10° C. for the duration of the experiment. The Biacore 8K can analyze up to 8 separate interactions in a single cycle.
Each experiment cycle began with an injection (300 s at 2 μL/min) overflow cells 1 and 2 of a 1:100 solution of biotin CAPture reagent (Cytiva) in running buffer. This was followed by an injection (45 s at 10.0 μL/min) of biotinylated human GDF15 (5 nM) overflow cell 2. […] The dissociation of the antibodies were monitored for 3420 s. Finally, an injection (120 s at 10 μL/min) of regeneration solution (6 M Guanidine-HCl in 0.25 M NaOH) overflow cells 1 and 2 prepared the sensor surface for another cycle. Several blank buffer samples were injected (300 s at 30 μL/min) overflow cells 1 and 2 throughout the duration of the experiment and used for reference surface subtraction—each were monitored for the same amount of dissociation time (3420 s) and regenerated under the same conditions as those for the Fab sample injections.

Cyno GDF15 Fc = biological target: T10, Cyno GDF15 Fc (cyno, UniProt G7PWZ3 193-308, limits assumed); assay: BLI Octet; antigen on sensor, 100 nM Fab (monovalent)
T10 construct: also called cyno GDF15-Fc fusion; not shown: Fc part
T10 sequence: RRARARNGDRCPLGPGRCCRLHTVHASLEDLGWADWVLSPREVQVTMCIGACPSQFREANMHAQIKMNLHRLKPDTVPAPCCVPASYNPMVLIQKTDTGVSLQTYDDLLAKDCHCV

Human GDF15 Fc [4] = biological target: T1, Human GDF15 Fc; assay: as above
Mouse GDF15 Fc = biological target: T11, Mouse GDF15 Fc (mouse, UniProt Q9Z0J7 189-303, limits assumed); assay: as above
T11 construct: also called mouse GDF15-Fc fusion; not shown: Fc part
T11 sequence (looked up): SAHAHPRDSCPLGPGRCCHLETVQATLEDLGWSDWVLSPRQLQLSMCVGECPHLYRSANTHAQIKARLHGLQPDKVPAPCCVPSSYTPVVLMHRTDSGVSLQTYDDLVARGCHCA

T6 sequence (O95390 299-407 limits assumed): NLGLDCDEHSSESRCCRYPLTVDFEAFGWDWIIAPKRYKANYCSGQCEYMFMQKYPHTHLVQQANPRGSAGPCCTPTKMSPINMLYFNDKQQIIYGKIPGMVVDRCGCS

Binder	Kd (Human GDF15 Fc [1]) [pM]	GDF15-GFRAL RET pERK IC50 (pM) [2] [pM]	GDF15-GFRAL-RET Luciferase IC50 (pM) [2] [pM]	binding result (GDF10)	binding result (Human BMP9)	binding result (Human Activin B)	binding result (GDF11)	binding result (Human Activin A Fc)	binding result (GDNF)	binding result (Human BMP10)	binding result (GDF8)	Kd (Human GDF15 Fc [3]) [pM]	koff (Human GDF15 Fc [3]) [s⁻¹]	kon (Human GDF15 Fc [3]) [M⁻¹ s⁻¹]	Kd (Cyno GDF15 Fc) [pM]	Kd (Human GDF15 Fc [4]) [pM]	Kd (Mouse GDF15 Fc) [pM]	GDF15 GFRAL RET pERK Fab IC50 pM [2]
B1	235	254	200	no binding (tested: 100 nM)	no binding (tested: 100 nM)	no binding (tested: 100 nM)	no binding (tested: 100 nM)	no binding (tested: 100 nM)	no binding (tested: 100 nM)	no binding (tested: 100 nM)	no binding (tested: 100 nM)	–	–	–	–	–	–	–
B2	278	35	190	no binding (tested: 100 nM)	no binding (tested: 100 nM)	no binding (tested: 100 nM)	no binding (tested: 100 nM)	no binding (tested: 100 nM)	no binding (tested: 100 nM)	no binding (tested: 100 nM)	no binding (tested: 100 nM)	–	–	–	–	–	–	–
B3	279	–	150	–	no binding (tested: 100 nM)	no binding (tested: 100 nM)	no binding (tested: 100 nM)	no binding (tested: 100 nM)	no binding (tested: 100 nM)	no binding (tested: 100 nM)	no binding (tested: 100 nM)	–	–	–	–	–	–	–
B4	–	–	–	no binding (tested: 100 nM)	no binding (tested: 100 nM)	no binding (tested: 100 nM)	no binding (tested: 100 nM)	no binding (tested: 100 nM)	no binding (tested: 100 nM)	no binding (tested: 100 nM)	no binding (tested: 100 nM)	–	–	–	–	–	–	–
B5	–	–	–	–	–	–	–	–	–	–	–	41.1	4.52e-05	1.1e+06	369	613	1920	–
B6	–	–	–	–	–	–	–	–	–	–	–	88.4	0.000404	4.57e+06	769	1280	–	75.1 pM
B7	–	–	–	no binding (tested: 100 nM)	no binding (tested: 100 nM)	no binding (tested: 100 nM)	no binding (tested: 100 nM)	no binding (tested: 100 nM)	no binding (tested: 100 nM)	no binding (tested: 100 nM)	no binding (tested: 100 nM)	–	–	–	–	–	–	–
B8	–	–	–	–	–	–	–	–	–	–	–	36.9	4.93e-05	1.34e+06	252	480	1360	–
B9	–	–	–	–	–	–	–	–	–	–	–	126	0.0021	1.66e+07	1720	3680	–	701 pM and 1000 pM
